Measured values: patent US12202907B2, “Nucleic acids encoding and methods of producing proteins comprising antibody chains” (Innate Pharma, priority 2018, dated 2025)

How the values were obtained:
cell-membrane bound CD39 = target: T1, cell-membrane bound CD39 (Homo sapiens, UniProt P49961); test: Inhibition of the enzymatic activity of cellular CD39 (cells not specified); type: cell-based
T1 sequence (P49961 1-510): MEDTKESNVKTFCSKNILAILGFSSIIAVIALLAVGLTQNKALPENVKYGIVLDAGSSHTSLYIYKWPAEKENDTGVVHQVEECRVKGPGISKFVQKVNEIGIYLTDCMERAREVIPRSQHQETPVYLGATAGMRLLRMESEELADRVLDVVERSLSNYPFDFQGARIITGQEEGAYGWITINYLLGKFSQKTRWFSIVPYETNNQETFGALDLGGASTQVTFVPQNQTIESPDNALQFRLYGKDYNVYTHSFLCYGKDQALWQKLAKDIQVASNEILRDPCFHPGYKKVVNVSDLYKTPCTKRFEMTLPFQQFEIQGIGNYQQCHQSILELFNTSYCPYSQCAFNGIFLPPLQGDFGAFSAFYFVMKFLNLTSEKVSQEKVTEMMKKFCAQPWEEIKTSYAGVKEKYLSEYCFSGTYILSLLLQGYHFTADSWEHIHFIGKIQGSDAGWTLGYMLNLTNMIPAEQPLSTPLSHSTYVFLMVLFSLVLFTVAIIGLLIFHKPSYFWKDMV
Protocol: The inhibition of the CD39 enzymatic activity in CD39-expressing cells by antibodies was evaluated using Cell Titer GIo™ (Promega, reference G7571) that allows assessment of ATP hydrolysis through use of a reagent that generates a luminescent signal proportional to the amount of ATP present. The assay was thus designed to permit assessment of the inhibition of ATP hydrolyzed by CD39 in the cell culture supernatant. Briefly, 5×10^4 Ramos human lymphoma cells, 5×10^3 human CD39−, cynomolgus CD39—and mouse CD39− expressing CHO cells, were incubated 1 hour at 37° C. with anti-CD39 antibodies from 30 μg/ml to 5×10^−4 μg/ml. Cells were then incubated with 20 μM ATP for 1 additional hour at 37° C. Plates were centrifuged for 2 min at 400 g and 50 μl cell supernatant are transferred in a luminescence microplate (white wells). 50 μl CellTiter-Glo™ Reagent (CTG) was added to the supernatant and emitted light was quantified after a 5 min incubation in the dark using a Enspire™ luminometer. Anti-CD39 antibody efficacy was determined by comparing emitted light in presence of antibody with ATP alone (maximal light emission) and ATP together with cells (minimal light emission).

[1] = target: T2, Human CD39-L1 (NTPDase2, ENTPD2) (Homo sapiens, UniProt Q9Y5L3); test: ELISA titration on CD39-L1; type: binding
T2 sequence (Q9Y5L3 1-472 isoform Q9Y5L3-2): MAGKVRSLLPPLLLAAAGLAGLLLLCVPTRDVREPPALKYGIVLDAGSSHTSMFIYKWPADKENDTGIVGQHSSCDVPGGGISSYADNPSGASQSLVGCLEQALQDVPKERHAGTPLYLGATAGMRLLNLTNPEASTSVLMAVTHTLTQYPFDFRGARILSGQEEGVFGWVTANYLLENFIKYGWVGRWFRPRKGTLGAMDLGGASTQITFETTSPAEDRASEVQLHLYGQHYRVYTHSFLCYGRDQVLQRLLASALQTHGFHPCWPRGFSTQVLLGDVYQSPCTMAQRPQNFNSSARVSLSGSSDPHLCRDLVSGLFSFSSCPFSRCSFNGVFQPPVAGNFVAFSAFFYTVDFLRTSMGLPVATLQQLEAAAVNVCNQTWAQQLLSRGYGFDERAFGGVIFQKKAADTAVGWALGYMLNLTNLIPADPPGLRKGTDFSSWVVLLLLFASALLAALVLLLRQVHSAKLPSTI
Protocol: (§1) Antibody I-394 was tested for binding to recombinant human CD39 isoforms (Rec-huCD39 isoforms) having amino acid sequences shown below were coated in 96-well plate in PBS 1X at 500 ng/ml or 1 μg/ml at 4° C. overnight. Wells were washed in TBS Tween® 20 (polysorbate 20), and further saturated 2H at RT in TBS Blocking buffer. Dose range concentration of primary antibody was incubated in TBS blocking buffer for 2 h at RT. Wells were washed in TBS Tween® 20 (polysorbate 20). […] Optical density was measured on Enspire™ at OD=450.

[2] = Aggregation temperature (thermal shift stability assay); type: physicochemical; settings: human IgG1 with L234A/L235E/G237A/A330S/P331S
Protocol: Antibodies mAb1-24 and prior art anti-CD39 antibody BY40, all produced as human IgG1 isotypes with L234A/L235E/G237A/A330S/P331S substitutions were tested for stability in the following reference formulation at a concentration of approximatively 7 mg/mL: pH 6.0; histidine buffer (10 mM); sucrose (200 mM); NaCl (50 mM); Polysorbate 80 (PS80) (0.2 g/L). The stability of the formulations was monitored in two storage conditions (at +5° C.±3° C. and at +40±3° C. For each study, 3 time points were performed: T0, T15D (15 days) and T1M (1 month). A freeze thaw (F/T) and a thermal shift stability assay (TSSA) were conducted for the format comparison. To perform F/T cycles, the samples were frozen at least 2 hours at −20° C. and thawed at least 1 hour at room temperature, the F/T cycle is repeated three times and samples are tested 24 h after the last Freeze/Thaw cycle. At each time point, the following tests were performed: • Particulate Matter (MFI) • Visual Inspection (Appearance) • Impurities (SE-HPLC) • Turbidity (400 nm) • Protein Concentration (280 nm) (performed with Nanodrop, Thermo Fisher Scientific Inc.)

[3] = target: T3, Human CD39-L3 (NTPDase3, ENTPD3) (Homo sapiens, UniProt O75355); test: ELISA titration on CD39-L3; type: binding
T3 sequence (O75355 1-529): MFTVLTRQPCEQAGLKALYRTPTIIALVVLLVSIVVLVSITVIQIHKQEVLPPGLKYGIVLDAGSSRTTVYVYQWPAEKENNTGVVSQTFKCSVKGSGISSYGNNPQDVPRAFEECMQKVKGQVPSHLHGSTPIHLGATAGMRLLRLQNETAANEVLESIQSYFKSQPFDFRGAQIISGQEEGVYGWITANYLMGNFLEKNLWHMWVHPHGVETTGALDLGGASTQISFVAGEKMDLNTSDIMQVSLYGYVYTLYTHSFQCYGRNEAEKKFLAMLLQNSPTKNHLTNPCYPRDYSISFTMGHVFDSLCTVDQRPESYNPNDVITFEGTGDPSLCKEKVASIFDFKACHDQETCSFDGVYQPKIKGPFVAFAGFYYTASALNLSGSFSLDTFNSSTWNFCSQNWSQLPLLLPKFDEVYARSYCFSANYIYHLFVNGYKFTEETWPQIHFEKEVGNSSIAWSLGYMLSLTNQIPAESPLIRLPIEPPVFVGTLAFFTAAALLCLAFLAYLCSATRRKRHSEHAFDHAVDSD
Protocol: as §1

Substance: I-394: anti-CD39 antibody, VH SEQ ID NO: 6, VL SEQ ID NO: 7, human IgG1 Fc with L234A/L235E/G237A/A330S/P331S
- potency and maximal inhibition of cellular CD39 compared to BY40 (cell-membrane bound CD39; FIG. 2A): greater potency and maximal inhibition of cellular CD39 compared to BY40
- inhibition of cell-membrane bound (cellular) CD39 ATPase activity (cell-membrane bound CD39; qualitative): inhibit cell-membrane bound CD39
- binding to CD39-L1 in ELISA [1]: not to any of the isoforms CD39-L1, -L2, -L3 or -L4
- Aggregation temperature (TAgg) [2]: ~70 °C
- binding to CD39-L3 in ELISA [3]: not to any of the isoforms CD39-L1, -L2, -L3 or -L4
